The record followed here is PMC6377645, “Structural insights into chaperone addiction of toxin-antitoxin systems” (Nature Communications, 2019).

In this experiment the target is Mtb-HigA1^ΔC42 (Mtb-HigA1 deleted of the last 42 residues) (Mycobacterium tuberculosis). Kind of experiment: SEC-MALS; Superdex 200 Increase 5/150; 20 mM MES, 200 mM NaCl, pH 6.5; 15 °C; Mtb-SecB^TA 49.1 µM, Mtb-SecB^TA/HigA1 6.5 µM, Mtb-HigA1^ΔC42 100 µM. For orientation: In gel filtration, larger molecules generally elute earlier.

Broadly, the stoichiometry N is the number of molecules, sites or subunits per partner or assembly. In the case of “Mtb-HigA1^ΔC42 (Mtb-HigA1 deleted of the last 42 residues) (domain or fragment)”, the stoichiometry N amounted to 2.
